Laboratory results taken from PMC7547085, “Specific and direct modulation of the interaction between adhesion GPCR GPR56/ADGRG1 and tissue transglutaminase 2 using synthetic ligands” (Scientific Reports, 2020).

Columns and labels:
[1] = biological target: mouse tissue transglutaminase 2 C-terminal D3D4 domains (mTG2 D3D4) (mouse) (UniProt P21981); experiment: bead-binding assay read by flow cytometry; titration of monomeric biotinylated GPR56 fragments on TG2 D3D4-coated M280 beads; detected with neutravidin-650; one-to-one binding fit; apparent KD
[2] = biological target: T1, mouse tissue transglutaminase 2 C-terminal D3D4 domains (mTG2 D3D4) (mouse, UniProt P21981 471-686, biotin on the AVI-tag); experiment: FACS
T1 chain: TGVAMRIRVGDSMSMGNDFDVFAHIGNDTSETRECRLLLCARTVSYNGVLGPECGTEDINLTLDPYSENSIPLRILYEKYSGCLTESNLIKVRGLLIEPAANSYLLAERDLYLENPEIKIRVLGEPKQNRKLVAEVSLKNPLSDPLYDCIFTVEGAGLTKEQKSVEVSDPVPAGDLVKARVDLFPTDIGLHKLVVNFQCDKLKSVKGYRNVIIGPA

[3] = biological target: T2, mouse tissue transglutaminase 2 C-terminal D3D4 domains (mTG2 D3D4) (mouse, UniProt P21981 471-686, biotin on the AVI-tag); experiment: bead-binding assay read by flow cytometry; titration of monomeric biotinylated GPR56 fragments on TG2 D3D4-coated M280 beads; detected with neutravidin-650; one-to-one binding fit; apparent KD; conditions: both partners purified
T2 construct: tissue transglutaminase 2 (TG2), mouse, domains D3 and D4, residues T471-A686; Used on M280 beads, or tetramerized with neutravidin-650 to stain cells; not shown: AVI-tag, N-terminal, kept
T2 sequence (looked up): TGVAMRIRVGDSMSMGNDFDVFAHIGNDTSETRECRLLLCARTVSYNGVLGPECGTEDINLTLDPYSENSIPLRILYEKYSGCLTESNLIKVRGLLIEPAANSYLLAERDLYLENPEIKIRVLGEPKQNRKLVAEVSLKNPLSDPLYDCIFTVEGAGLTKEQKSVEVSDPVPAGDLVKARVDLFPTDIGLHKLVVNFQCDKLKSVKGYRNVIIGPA

## human GPR56 ECR H89A (domain or fragment)
[1]
  Kd: 790 nM

B1: mouse GPR56 ECR S150A (domain or fragment)
chain: GSPREDFRFCGQRNQTQQSTLHYDQSSEPHIFVWNTEETLTIRAPFLAAPDIPRFFPEPRGLYHFCLYWSRHTGRLHLRYGKHDYLLSSQASRLLCFQKQEQSLKQGAPLIATSVSSWQIPQNTALPGAPSFIFSFHNAPHKVSHNASVDMCDLKKELQQLSRYLQHPQKAAKRPTAAFISQQLQSLESKLTSVSFLGDTLSFEEDRVNATVWKLPPTAGLEDLHIHSQKEEEQSEVQAYSLLLPRAVFQQTRGRRRDDAKRLLVVDFSSQALFQDKNSSQVLGEKVLGIVVQNTKVTNLSDPVVLTFQHQPQPKNVTLQCVFWVEDPASSSTGSWSSAGCETVSRDTQTSCLCNHLTYFAVLMVSSTEVEATHKHY
modifications: biotin on the AVI-tag
[2]
  Kd: 11 nM
[1]
  fold increase in affinity against wild type: 40 fold

B2: mouse GPR56/ADGRG1 extracellular region (ECR), wild type (domain or fragment)
chain: PREDFRFCGQRNQTQQSTLHYDQSSEPHIFVWNTEETLTIRAPFLAAPDIPRFFPEPRGLYHFCLYWSRHTGRLHLRYGKHDYLLSSQASRLLCFQKQEQSLKQGAPLIATSVSSWQIPQNTSLPGAPSFIFSFHNAPHKVSHNASVDMCDLKKELQQLSRYLQHPQKAAKRPTAAFISQQLQSLESKLTSVSFLGDTLSFEEDRVNATVWKLPPTAGLEDLHIHSQKEEEQSEVQAYSLLLPRAVFQQTRGRRRDDAKRLLVVDFSSQALFQDKNSSQVLGEKVLGIVVQNTKVTNLSDPVVLTFQHQPQPKNVTLQCVFWVEDPASSSTGSWSSAGCETVSRDTQTSCLCNHLTYFAVLMVS
modifications: biotin on the AVI-tag
[3]
  Kd: 440 ± 20 nM

B3: human GPR56/ADGRG1 extracellular region (ECR), wild type (domain or fragment)
chain: RGHREDFRFCSQRNQTHRSSLHYKPTPDLRISIENSEEALTVHAPFPAAHPASRSFPDPRGLYHFCLYWNRHAGRLHLLYGKRDFLLSDKASSLLCFQHQEESLAQGPPLLATSVTSWWSPQNISLPSAASFTFSFHSPPHTAAHNASVDMCELKRDLQLLSQFLKHPQKASRRPSAAPASQQLQSLESKLTSVRFMGDMVSFEEDRINATVWKLQPTAGLQDLHIHSRQEEEQSEIMEYSVLLPRTLFQRTKGRSGEAEKRLLLVDFSSQALFQDKNSSQVLGEKVLGIVVQNTKVANLTEPVVLTFQHQLQPKNVTLQCVFWVEDPTLSSPGHWSSAGCETVRRETQTSCFCNHLTYFAVLMVSSVEVDAVHKH
modifications: biotin on the AVI-tag
[3]
  Kd: 330 ± 15 nM

B4: mouse GPR56 ECR H89A (domain or fragment)
chain: PREDFRFCGQRNQTQQSTLHYDQSSEPHIFVWNTEETLTIRAPFLAAPDIPRFFPEPRGLYAFCLYWSRHTGRLHLRYGKHDYLLSSQASRLLCFQKQEQSLKQGAPLIATSVSSWQIPQNTSLPGAPSFIFSFHNAPHKVSHNASVDMCDLKKELQQLSRYLQHPQKAAKRPTAAFISQQLQSLESKLTSVSFLGDTLSFEEDRVNATVWKLPPTAGLEDLHIHSQKEEEQSEVQAYSLLLPRAVFQQTRGRRRDDAKRLLVVDFSSQALFQDKNSSQVLGEKVLGIVVQNTKVTNLSDPVVLTFQHQPQPKNVTLQCVFWVEDPASSSTGSWSSAGCETVSRDTQTSCLCNHLTYFAVLMVS
modifications: biotin on the AVI-tag
[3]
  Kd: 880 ± 80 nM
